Experimental data as given in patent publication US20260201064A1 (ISU ABXIS, published 2026).

T1: recombinant human ASM protein (human, UniProt P17405 47-630)
T1 construct: Recombinant human ASM in solution; also called acid sphingomyelinase (ASM) protein
T1 sequence: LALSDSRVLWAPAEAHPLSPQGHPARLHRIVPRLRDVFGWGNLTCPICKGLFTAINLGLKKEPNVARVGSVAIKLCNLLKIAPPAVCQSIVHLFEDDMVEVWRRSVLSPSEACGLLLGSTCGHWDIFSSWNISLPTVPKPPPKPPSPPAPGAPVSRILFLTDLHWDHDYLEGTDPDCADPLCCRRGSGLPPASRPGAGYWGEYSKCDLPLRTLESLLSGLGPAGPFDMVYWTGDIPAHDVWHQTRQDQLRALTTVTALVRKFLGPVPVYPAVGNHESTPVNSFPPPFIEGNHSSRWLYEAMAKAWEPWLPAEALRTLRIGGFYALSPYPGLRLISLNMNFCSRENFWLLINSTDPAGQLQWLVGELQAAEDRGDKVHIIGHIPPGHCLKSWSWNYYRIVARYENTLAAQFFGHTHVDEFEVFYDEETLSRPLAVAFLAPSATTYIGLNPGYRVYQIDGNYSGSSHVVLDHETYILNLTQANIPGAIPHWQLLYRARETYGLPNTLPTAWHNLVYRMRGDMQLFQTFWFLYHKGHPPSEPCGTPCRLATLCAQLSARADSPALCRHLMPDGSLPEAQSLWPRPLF


Molecular target: T1, recombinant human ASM protein
Assay: BLI (Octet), antibody on AHC sensor
Method: The binding affinity, to the ASM protein, of the produced antibodies specifically binding to the ASM protein and the interactive dynamics therebetween were measured using an Octet® QK384 system (Pall Life Sciences).
First, an antibody specifically binding to the ASM protein produced in Example 1 was captured using an anti-human IgG Fc capture (AHC) biosensor, and 1.25, 2.5, 5, 10, or 20 nM recombinant human ASM protein solution was added thereto. […] The association constant (Kₐ), dissociation constant (Kd), and equilibrium dissociation constant (KD) for each antibody were determined using Octet® analysis software (Pall Life® Sciences). As a result, the binding affinities, to the human ASM protein, of the antibodies with mutations in the heavy chain CDR regions of the antibody #9104 as depicted in Table 1 are shown in Table 5, and the binding affinities, to the human ASM protein, of the antibodies with mutations of the light chain CDR regions in the antibody #9104 as depicted in Table 2 are shown in Table 6.
After the small-scale expression in the ExpiCHO cell line as described above, the binding affinity to the human ASM protein was investigated as described in Experimental Example 1. Specifically, the antibody produced by a combination of #9104v-H33 heavy chain variable region and #9104v-L23 light chain variable region was not expressed and thus excluded in the analysis of binding affinity to ASM protein.

Row | Binder | Kd [nM] | koff [s⁻¹] | kon [M⁻¹ s⁻¹]
1 | #9104a-C1 (antibody, human IgG4 S228P, lambda, V domains shown, VH of #9104v-H10 with VL of #9104v-L23; full-length IgG, lambda) VH: EVQLLESGGGLVQPGGSLRLSCAASGFTFSNYYMSWVRQAPGKGLEWVSGIYYGNGIPYYADSVKDRFTISRDNSKNTLYLQMNSLRAEDTAVYYCARDTPGFDYWGQGTLVTVSS VL: QSVLTQPPSASGTPGQRVTISCTGSSSNIGNNAVNWYQQLPGTAPKLLIYYDQFRPSGVPDRFSGSKSGTSASLAISGLRSEDEADYYCGAWDYSLSAYVFGGGTKLTVLG | 0.139 | 3.76e-05 | 271000
2 | #9104a-C7 (antibody, human IgG4 S228P, lambda, V domains shown, VH of #9104v-H31 with VL of #9104v-L23; full-length IgG, lambda) VH: EVQLLESGGGLVQPGGSLRLSCAASGFTFSNYYMSWVRQAPGKGLEWVSGVYYGSGTPYYADSVKGRFTISRDNSKNTLYLQMNSLRAEDTAVYYCARDTPGFDYWGQGTLVTVSS VL: QSVLTQPPSASGTPGQRVTISCTGSSSNIGNNAVNWYQQLPGTAPKLLIYYDQFRPSGVPDRFSGSKSGTSASLAISGLRSEDEADYYCGAWDYSLSAYVFGGGTKLTVLG | 0.152 | 4.56e-05 | 300000
3 | #9104a-D3 (antibody, human IgG4 S228P, lambda, V domains shown, VH of #9104v-H13 with VL of #9104v-L64; full-length IgG, lambda) VH: EVQLLESGGGLVQPGGSLRLSCAASGFTFSNYYMSWVRQAPGKGLEWVSGIYYGSGIPYYANSVKGRFTISRDNSKNTLYLQMNSLRAEDTAVYYCARDTPGFDYWGQGTLVTVSS VL: QSVLTQPPSASGTPGQRVTISCTGSSSNIGNNAVNWYQQLPGTAPKLLIYYDYFSHSGVPDRFSGSKSGTSASLAISGLRSEDEADYYCGAWDYSLSAYVFGGGTKLTVLG | 0.229 | 6.73e-05 | 294000
4 | #9104a-D2 (antibody, human IgG4 S228P, lambda, V domains shown, VH of #9104v-H11 with VL of #9104v-L64; full-length IgG, lambda) VH: EVQLLESGGGLVQPGGSLRLSCAASGFTFSNYYMSWVRQAPGKGLEWVSGIYYGSGIPYYADSVKERFTISRDNSKNTLYLQMNSLRAEDTAVYYCARDTPGFDYWGQGTLVTVSS VL: QSVLTQPPSASGTPGQRVTISCTGSSSNIGNNAVNWYQQLPGTAPKLLIYYDYFSHSGVPDRFSGSKSGTSASLAISGLRSEDEADYYCGAWDYSLSAYVFGGGTKLTVLG | 0.149 | 5.22e-05 | 351000
5 | #9104a-D4 (antibody, human IgG4 S228P, lambda, V domains shown, VH of #9104v-H17 with VL of #9104v-L64; full-length IgG, lambda) VH: EVQLLESGGGLVQPGGSLRLSCAASGFTFSNYYMSWVRRAPGKGLEWVSGIYYGSGTPYYAASVKGRFTISRDNSKNTLYLQMNSLRAEDTAVYYCARDTPGFDYWGQGTLVTVSS VL: QSVLTQPPSASGTPGQRVTISCTGSSSNIGNNAVNWYQQLPGTAPKLLIYYDYFSHSGVPDRFSGSKSGTSASLAISGLRSEDEADYYCGAWDYSLSAYVFGGGTKLTVLG | 0.206 | 5.09e-05 | 248000
6 | #9104a-C6 (antibody, human IgG4 S228P, lambda, V domains shown, VH of #9104v-H27 with VL of #9104v-L23; full-length IgG, lambda) VH: EVQLLESGGGLVQPGGSLRLSCAASGFTFSNYYMSWVRQAPGKGLEWVSGTYYDSGYVYYADSVKGRFTISRDNSKNTLYLQMNSLRAEDTAVYYCARDTPGFDYWGQGTLVTVSS VL: QSVLTQPPSASGTPGQRVTISCTGSSSNIGNNAVNWYQQLPGTAPKLLIYYDQFRPSGVPDRFSGSKSGTSASLAISGLRSEDEADYYCGAWDYSLSAYVFGGGTKLTVLG | 0.928 | 0.000109 | 117000
7 | #9104a-C2 (antibody, human IgG4 S228P, lambda, V domains shown, VH of #9104v-H11 with VL of #9104v-L23; full-length IgG, lambda) VH: EVQLLESGGGLVQPGGSLRLSCAASGFTFSNYYMSWVRQAPGKGLEWVSGIYYGSGIPYYADSVKERFTISRDNSKNTLYLQMNSLRAEDTAVYYCARDTPGFDYWGQGTLVTVSS VL: QSVLTQPPSASGTPGQRVTISCTGSSSNIGNNAVNWYQQLPGTAPKLLIYYDQFRPSGVPDRFSGSKSGTSASLAISGLRSEDEADYYCGAWDYSLSAYVFGGGTKLTVLG | 0.172 | 5.28e-05 | 306000
8 | #9104a-D1 (antibody, human IgG4 S228P, lambda, V domains shown, VH of #9104v-H10 with VL of #9104v-L64; full-length IgG, lambda) VH: EVQLLESGGGLVQPGGSLRLSCAASGFTFSNYYMSWVRQAPGKGLEWVSGIYYGNGIPYYADSVKDRFTISRDNSKNTLYLQMNSLRAEDTAVYYCARDTPGFDYWGQGTLVTVSS VL: QSVLTQPPSASGTPGQRVTISCTGSSSNIGNNAVNWYQQLPGTAPKLLIYYDYFSHSGVPDRFSGSKSGTSASLAISGLRSEDEADYYCGAWDYSLSAYVFGGGTKLTVLG | 0.0948 | 2.79e-05 | 294000
9 | #9104a-C4 (antibody, human IgG4 S228P, lambda, V domains shown, VH of #9104v-H17 with VL of #9104v-L23; full-length IgG, lambda) VH: EVQLLESGGGLVQPGGSLRLSCAASGFTFSNYYMSWVRRAPGKGLEWVSGIYYGSGTPYYAASVKGRFTISRDNSKNTLYLQMNSLRAEDTAVYYCARDTPGFDYWGQGTLVTVSS VL: QSVLTQPPSASGTPGQRVTISCTGSSSNIGNNAVNWYQQLPGTAPKLLIYYDQFRPSGVPDRFSGSKSGTSASLAISGLRSEDEADYYCGAWDYSLSAYVFGGGTKLTVLG | 0.203 | 6.42e-05 | 317000
10 | #9104a-C5 (antibody, human IgG4 S228P, lambda, V domains shown, VH of #9104v-H19 with VL of #9104v-L23; full-length IgG, lambda) VH: EVQLLESGGGLVQPGGSLRLSCAASGFTFSNYYMSWVRQAPGKGLEWVSGIYYGSGVPYYADSVKGRFTISRDNSKNTLYLQMNSLRAEDTAVYYCARDTPGFDYWGQGTLVTVSS VL: QSVLTQPPSASGTPGQRVTISCTGSSSNIGNNAVNWYQQLPGTAPKLLIYYDQFRPSGVPDRFSGSKSGTSASLAISGLRSEDEADYYCGAWDYSLSAYVFGGGTKLTVLG | 0.192 | 6.46e-05 | 337000
11 | #9104a-C3 (antibody, human IgG4 S228P, lambda, V domains shown, VH of #9104v-H13 with VL of #9104v-L23; full-length IgG, lambda) VH: EVQLLESGGGLVQPGGSLRLSCAASGFTFSNYYMSWVRQAPGKGLEWVSGIYYGSGIPYYANSVKGRFTISRDNSKNTLYLQMNSLRAEDTAVYYCARDTPGFDYWGQGTLVTVSS VL: QSVLTQPPSASGTPGQRVTISCTGSSSNIGNNAVNWYQQLPGTAPKLLIYYDQFRPSGVPDRFSGSKSGTSASLAISGLRSEDEADYYCGAWDYSLSAYVFGGGTKLTVLG | 0.176 | 4.55e-05 | 259000

The next lines start with the values.

Row | Kd [nM] | koff [s⁻¹] | kon [M⁻¹ s⁻¹] | Binder
12 | 0.198 | 5.69e-05 | 288000 | #9104a-D7 (antibody, human IgG4 S228P, lambda, V domains shown, VH of #9104v-H31 with VL of #9104v-L64; full-length IgG, lambda) VH: EVQLLESGGGLVQPGGSLRLSCAASGFTFSNYYMSWVRQAPGKGLEWVSGVYYGSGTPYYADSVKGRFTISRDNSKNTLYLQMNSLRAEDTAVYYCARDTPGFDYWGQGTLVTVSS VL: QSVLTQPPSASGTPGQRVTISCTGSSSNIGNNAVNWYQQLPGTAPKLLIYYDYFSHSGVPDRFSGSKSGTSASLAISGLRSEDEADYYCGAWDYSLSAYVFGGGTKLTVLG
13 | 0.289 | 6.21e-05 | 215000 | #9104a-E1 (antibody, human IgG4 S228P, lambda, V domains shown, VH of #9104v-H10 with VL of #9104v-L65; full-length IgG, lambda) VH: EVQLLESGGGLVQPGGSLRLSCAASGFTFSNYYMSWVRQAPGKGLEWVSGIYYGNGIPYYADSVKDRFTISRDNSKNTLYLQMNSLRAEDTAVYYCARDTPGFDYWGQGTLVTVSS VL: QSVLTQPPSASGTPGQRVTISCTGSSSNIGNNAVNWYQQLPGTAPKLLIYYDYYQSSGVPDRFSGSKSGTSASLAISGLRSEDEADYYCGAWDYSLSAYVFGGGTKLTVLG
14 | 0.177 | 3.33e-05 | 188000 | #9104a-D8 (antibody, human IgG4 S228P, lambda, V domains shown, VH of #9104v-H33 with VL of #9104v-L64; full-length IgG, lambda) VH: EVQLLESGGGLVQPGGSLRLSCAASGFTFSNYYMSWVRQAPGKGLEWVSGVYYPSGNPYYADSVKGRFTISRDNSKNTLYLQMNSLRAEDTAVYYCARDTPGFDYWGQGTLVTVSS VL: QSVLTQPPSASGTPGQRVTISCTGSSSNIGNNAVNWYQQLPGTAPKLLIYYDYFSHSGVPDRFSGSKSGTSASLAISGLRSEDEADYYCGAWDYSLSAYVFGGGTKLTVLG
15 | 0.13 | 3.39e-05 | 261000 | #9104a-D5 (antibody, human IgG4 S228P, lambda, V domains shown, VH of #9104v-H19 with VL of #9104v-L64; full-length IgG, lambda) VH: EVQLLESGGGLVQPGGSLRLSCAASGFTFSNYYMSWVRQAPGKGLEWVSGIYYGSGVPYYADSVKGRFTISRDNSKNTLYLQMNSLRAEDTAVYYCARDTPGFDYWGQGTLVTVSS VL: QSVLTQPPSASGTPGQRVTISCTGSSSNIGNNAVNWYQQLPGTAPKLLIYYDYFSHSGVPDRFSGSKSGTSASLAISGLRSEDEADYYCGAWDYSLSAYVFGGGTKLTVLG
16 | 1.07 | 8.7e-05 | 81200 | #9104a-D6 (antibody, human IgG4 S228P, lambda, V domains shown, VH of #9104v-H27 with VL of #9104v-L64; full-length IgG, lambda) VH: EVQLLESGGGLVQPGGSLRLSCAASGFTFSNYYMSWVRQAPGKGLEWVSGTYYDSGYVYYADSVKGRFTISRDNSKNTLYLQMNSLRAEDTAVYYCARDTPGFDYWGQGTLVTVSS VL: QSVLTQPPSASGTPGQRVTISCTGSSSNIGNNAVNWYQQLPGTAPKLLIYYDYFSHSGVPDRFSGSKSGTSASLAISGLRSEDEADYYCGAWDYSLSAYVFGGGTKLTVLG
